We go through two molecules from PMC4234293, “Galactosyltransferases from Arabidopsis thaliana in the biosynthesis of type II arabinogalactan: molecular interaction enhances enzyme activity” (BMC Plant Biology, 2014).

The labels stand for the following.
B1: AtGALT29A (Arabidopsis thaliana beta-galactosyltransferase 1 from family GT29, At1g08280), C-terminal mCer3-HA or YFP-HA fusion (enzyme, UniProt Q9SGD2 1-398, looked up)
chain: MKRSVRPLFSALLFAFFAATLICRVAIRRSSFSFASAIAELGSSGLMTEDIVFNETLLEFAAIDPGEPNFKQEVDLISDYDHTRRSHRRHFSSMSIRPSEQQRRVSRDIASSSKFPVTLRSSQAYRYWSEFKRNLRLWARRRAYEPNIMLDLIRLVKNPIDVHNGVVSISSERYLSCAVVGNSGTLLNSQYGDLIDKHEIVIRLNNAKTERFEKKVGSKTNISFINSNILHQCGRRESCYCHPYGETVPIVMYICQPIHVLDYTLCKPSHRAPLLITDPRFDVMCARIVKYYSVKKFLEEKKAKGFVDWSKDHEGSLFHYSSGMQAVMLAVGICEKVSVFGFGKLNSTKHHYHTNQKAELKLHDYEAEYRLYRDLENSPRAIPFLPKEFKIPLVQVYH
notes: AtGALT29A, Arabidopsis thaliana, locus At1g08280; full-length cDNA without stop codon; Two copies that differ only in the tag were used in the FRET experiments: mCer3-HA (donor) and YFP-HA (acceptor); They are kept as one molecule so that the homodimer row has the protein with itself; The label in each row tells which copy was meant; also called AtGALT29A-mCer3; AtGALT29A-YFP; source: N. …
B2: AtGALT31A (Arabidopsis thaliana beta-galactosyltransferase 1 from family GT31, At1g32930), C-terminal mCer3-HA or YFP-HA fusion (enzyme, UniProt Q9MAP8 1-399, looked up)
chain: MGMGRYQKSATSGVSARWVFVLCISSFLLGVLVVNRLLASFETVDGIERASPEQNDQSRSLNPLVDCESKEGDILSRVSHTHDVIKTLDKTISSLEVELATARAARSDGRDGSPAVAKTVADQSKIRPRMFFVMGIMTAFSSRKRRDSIRGTWLPKGDELKRLETEKGIIMRFVIGHSSSPGGVLDHTIEAEEEQHKDFFRLNHIEGYHELSSKTQIYFSSAVAKWDADFYIKVDDDVHVNLGMLGSTLARHRSKPRVYIGCMKSGPVLAQKGVKYHEPEYWKFGEEGNKYFRHATGQIYAISKDLATYISVNRQLLHKYANEDVSLGSWFIGLDVEHIDDRSLCCGTPLDCEWKGQAGNPCAASFDWSCSGICKSVDRMLEVHQRCGEGDGAIWHSSF
notes: AtGALT31A, Arabidopsis thaliana, locus At1g32930; full-length cDNA without stop codon; Two copies that differ only in the tag were used in the FRET experiments: mCer3-HA (donor) and YFP-HA (acceptor); They are kept as one molecule so that the homodimer row has the protein with itself; also called AtGALT31A-mCer3; AtGALT31A-YFP; source: N. benthamiana leaves, Agrobacterium-infiltrated, transient …

What all share (test): FRET or BRET; acceptor photobleaching FRET, mCer3 donor and YFP acceptor, co-expressed in N. benthamiana leaf epidermal cells; Golgi ROIs, pixel-by-pixel FRET efficiency
In general terms: In BRET a luciferase serves as donor, and the signal depends on an acceptor being close.

The target in data set [1] is B2. Particulars: partners not purified.
Data set [2] deals with the molecule itself.
Data set [3] has as its target B1. Conditions: partners not purified.

For B1, the FRET efficiency in data set [1] stood at 18%; in data set [2], 34%.

On to B2, for which the FRET efficiency in data set [3] is 29%; in data set [2], 19%.
